{"source": "patent US20210324360", "proteins": {"B1": {"name": "Sentrin-specific protease 1 (SENP1) (protein)", "chain": "MDDIADRMRMDAGEVTLVNHNSVFKTHLLPQTGFPEDQLSLSDQQILSSRQGHLDRSFTCSTRSAAYNPSYYSDNPSSDSFLGSGDLRTFGQSANGQWRNSTPSSSSSLQKSRNSRSLYLETRKTSSGLSNSFAGKSNHHCHVSAYEKSFPIKPVPSPSWSGSCRRSLLSPKKTQRRHVSTAEETVQEEEREIYRQLLQMVTGKQFTIAKPTTHFPLHLSRCLSSSKNTLKDSLFKNGNSCASQIIGSDTSSSGSASILTNQEQLSHSVYSLSSYTPDVAFGSKDSGTLHHPHHHHSVPHQPDNLAASNTQSEGSDSVILLKVKDSQTPTPSSTFFQAELWIKELTSVYDSRARERLRQIEEQKALALQLQNQRLQEREHSVHDSVELHLRVPLEKEIPVTVVQETQKKGHKLTDSEDEFPEITEEMEKEIKNVFRNGNQDEVLSEAFRLTITRKDIQTLNHLNWLNDEIINFYMNMLMERSKEKGLPSVHAFNTFFFTKLKTAGYQAVKRWTKKVDVFSVDILLVPIHLGVHWCLAVVDFRKKNITYYDSMGGINNEACRILLQYLKQESIDKKRKEFDTNGWQLFSKKSQEIPQQMNGSDCGMFACKYADCITKDRPINFTQQHMPYFRKRMVWEILHRKLL"}}, "molecular_target": "SUMO-modified granzyme B", "sequence (chain, as listed by the source)": "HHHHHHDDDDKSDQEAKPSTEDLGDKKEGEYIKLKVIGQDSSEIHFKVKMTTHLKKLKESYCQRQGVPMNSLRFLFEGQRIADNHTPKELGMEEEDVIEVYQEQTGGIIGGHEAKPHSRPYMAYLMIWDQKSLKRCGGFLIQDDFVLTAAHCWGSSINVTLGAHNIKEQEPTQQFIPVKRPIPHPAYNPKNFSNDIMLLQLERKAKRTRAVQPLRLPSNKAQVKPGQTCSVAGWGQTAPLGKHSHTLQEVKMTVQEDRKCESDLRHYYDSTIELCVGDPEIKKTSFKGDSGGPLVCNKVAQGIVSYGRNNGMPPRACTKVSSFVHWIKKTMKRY"}
{"protein": "B1", "values": [{"measurement": "GrB activity (cleavage of Ac-IEPD-pNA, absorbance at 405 nm) and western blot after co-incubation with Mock-transfected or SENP1-overexpressing HEK lysate", "value": "SENP1 activates SUMO-GrB"}]}
